According to article PMC3553985 (Nucleic Acids Research, 2012):

T1: γ subunit of Sulfolobus solfataricus aIF2 (Ss-aIF2γ), native version (S. solfataricus, UniProt Q980A5 2-415)
T1 sequence: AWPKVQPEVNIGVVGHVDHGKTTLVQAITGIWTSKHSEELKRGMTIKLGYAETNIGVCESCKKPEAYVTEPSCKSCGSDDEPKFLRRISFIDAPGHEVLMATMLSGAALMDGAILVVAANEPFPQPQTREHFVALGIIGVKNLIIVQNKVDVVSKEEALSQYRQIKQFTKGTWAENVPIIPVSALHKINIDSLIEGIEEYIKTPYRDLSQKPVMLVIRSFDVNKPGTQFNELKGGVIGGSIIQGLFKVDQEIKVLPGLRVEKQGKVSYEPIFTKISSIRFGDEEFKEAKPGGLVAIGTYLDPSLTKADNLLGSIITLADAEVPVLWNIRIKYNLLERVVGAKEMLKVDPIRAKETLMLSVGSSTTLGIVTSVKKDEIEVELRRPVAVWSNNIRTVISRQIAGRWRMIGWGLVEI


Molecular target: T1, γ subunit of Sulfolobus solfataricus …
Assay: SEC

Row | Binder | binding result
1 | yeast eIF2αΔC274, His-tag removed (SAXS sample) (domain or fragment) MSTSHCRFYENKYPEIDDIVMVNVQQIAEMGAYVKLLEYDNIEGMILLSELSRRRIRSIQKLIRVGKNDVAVVLRVDKEKGYIDLSKRRVSSEDIIKCEEKYQKSKTVHSILRYCAEKFQIPLEELYKTIAWPLSRKFGHAYEAFKLSIIDETVWEGIEPPSKDVLDELKNYISKRLTPQAVKIRADVEVSCFSYEGIDAIKDALKSAEDMSTEQMQVKVKLVAAPLYVLTTQALDKQKGIEQLESAIEKITEVITKYGGVCNITMPPKAVTAT | binds
2 | yeast αD3ΔC274, His-tag removed (SAXS sample) (domain or fragment) TPQAVKIRADVEVSCFSYEGIDAIKDALKSAEDMSTEQMQVKVKLVAAPLYVLTTQALDKQKGIEQLESAIEKITEVITKYGGVCNITMPPKAVTAT | binds
